In the DeepSol protein solubility set:

Test: soluble on expression in E. coli; label from the status in PepcDB or PDB records

| Sequence | soluble on expression in E. coli |
| --- | --- |
| MSLKKAIAYMRFSSPGQMSGDSLNRQRRLIAEWLKVNSDYYLDTITYEDLGLSAFKGKHAQSGAFSEFLDAIEHGYILPGTTLLVESLDRLSREKVGEAIERLKLILNHGIDVITLCDNTVYNIDSLNEPYSLIKAILIAQRANEESEIKSSRVKLSWKKKRQDALESGTIMTASCPRWLSLDDKRTAFVPDPDRVKTIELIFKLRMERRSLNAIAKYLNDHAVKNFSGKESAWGPSVIEKLLANKALIGICVPSYRARGKGISEIAGYYPRVISDDLFYAVQEIRLAPFGISNSEGHHHHHH | soluble |
| MRGKLDLGEQPLVLIWEVTQACELACKHCRADAQPRRHPDELSTAEGKALLDQASEFGDGQLVVLSGGDPLARGDLPELVEYGTEQGLRMTLTPSGTNSITPERLAELDDAGLRRLALSIDGGDSDAHDTFRGESGSFEATMAAAEAARNLDIPLQINTTVCAETVEQLPAIRDLVADLDAVLWSVFFLVPVGRGRVLTPIDPERAERVLKWLHEVSDEASFGLKTTEAPHYRRVAMEQQDEGASGLKRRMGIRAGKGFAFVSHTGEVFPSGFLPKSAGSVREESVVDIYRDSPLFQQLRDDDALTGKCGACRYRTVCGGSRSRAYATTGDPLAADPLCDYRPDGFEGSVPDQHPAD | not soluble |
| MHNMFPALTKTLSLQGYKIINSQTGSAAWSCGRRWFSSDKDDHDDVVTRIKIAPIKRTNEPLDKKRARLIYQSRKRGILETDLLLSGFAAKYLKKMNEEELEEYDSLLNELDWDIYYWATKNFKTSPLPDKWANSKLLKQLQEFSENKEKEILSMPDLSKYQ | soluble |
| LRANKPVFKNAGATLHDIGDGIVNLEFHTKMNTLGGEVVDAINRSIGIAEKDFQGIVIGNDGANFSAGANLALVLMYAIEQEYDEIDFMIRAFQNTMMRARYSSIPVVVAPHNLTLGGGCEMTLHADHVQAFAETYIGLVEFGVGLIPAGGGTKEFTLRVSDSFEDGDIQVNNLKNMYMHIATAKVATSAEEARSMGILRKSDGITLNRSRLIADAKAAAISLAEAG | not soluble |
| TYDSLKESTARDTGHLTLTTPGYFAKEEEMPLSNGLSHADEITKQLIGLSEVRGVQPRVEFSGLISNGSKSSIFIGIGVNEREFDMKGPFLDVRDGQTLSNIHASRYDASEPEVMLGVDLASNLSVNVGDWITLLATTTDGALNAYDFKVRGIYSTGVPELDKRQLYVHINSAQSLLGSDKVSALSVFLFDTCLTNKVEQQVATILNKQKPSFGDQEVEITPWQERAFFYLKVKDLYDR | not soluble |
| MSLLPRTTSVKPGEKFDVIIVGLGPAAYGAALYSARYMLKTLVIGETPGGQLTEAGIVDDYLGLIEIQASDMIKVFNKHIEKYEVPVLLDIVEKIENRGDEFVVKTKRKGEFKADSVILGIGVKRRKLGVPGEQEFAGRGISYCSVADAPLFKNRVVAVIGGGDSALEGAEILSSYSTKVYLIHRRDTFKAQPIYVETVKKKPNVEFVLNSVVKEIKGDKVVKQVVVENLKTGEIKELNVNGVFIEIGFDPPTDFAKSNGIETDTNGYIKVDEWMRTSVPGVFAAGDCTSAWLGFRQVITAVAQGAVAATSAYRYVTEKKGKK | soluble |
| GPGSMAEAQARKRTESLSKMYSKTPISEGYALWDREYLLAAMRVFTFKAEGAPPFVLAPYLDSVAEITLQMHDLEDAAEQFAIAAGKYQLIDQKVLADLMRFKVTEVSSSAEIALEQVQAYLAAQDPQANGSGENSTVQTKSAFARVYAYLADLLLRSVDEEQASEAVLAQALTAAELAVQLGWDRDHCGWLLVGDVHAASGNYEKAKEAYGKALQRCPHYAKALERQIGVVQQLVRAADECGDDAGKATLNTELLTLLSRSIEVHPLANTFREKAFLLSEMHGDDAALAFVAETLEHPPQEEIEVIGSSAKEMTSTLLKAKAAILADGNQLDAALEAATKALEVDPNDEEAKSIIRDLHESMAA | soluble |
| MSLKPASVIIMDEHPIVRMSIEVLLGKNSNIQVVLKTDDSRTAIEYLRTYPVDLVILDIELPGTDGFTLLKRIKSIQEHTRILFLSSKSEAFYAGRAIRAGANGFVSKRKDLNDIYNAVKMILSGYSFFPSETLNFISNTRTPKGGHHDMPLSNREVTVLRYLANGMSNKEIAEQLLLSNKTISAHKANIFSKLGLHSIVELIDYAKSHELLEGHHHHHH | soluble |
| MRDVPNIGFISLGCPKNLVDSERILTELRSDGYNIIPSYENADLVIVNTCGFIDSAVQESLEAVGEALKENGKVIVTGCLGAKENQIREVHPKVLEITGPHSYEAVMQHVHKYVPRPERNMYTSLVPAQGVKLTPKHYAYLKISEGCDHRCTFCIIPSMRGDLDSRPIVQILDEAKRLADSGVKELLIVSQDTSAYALDQTKENQNKTVFWNGVPIKNNLISLCEQLATLGIWIRLHYVYPYPHVDNLIPLMAEGKILPYLDIPLQHASPKILKAMKRPGSIDRTLERIKQWREICPELTLRSTFIVGFPGETEEDFQMLLDFLTEAQLDRVGCFKFSPVDGAVATEMAEQVPEEVKEERFHRFMQVQQRISVARLQQKIGKTLAIIIDEIDEYGIIGRSMADAPEIDGVVYVDNISQQAVTVGQIILVTITNADEYDLWGTYLEHHHHHH | soluble |
| MDLPKAYDPKSVEPKWAEKWAKNPFVANPKSGKPPFVIFMPPPNVTGSLHMGHALDNSLQDALIRYKRMRGFEAVWLPGTDHAGIATQVVVERLLLKEGKTRHDLGREKFLERVWQWKEESGGTILKQLKRLGASADWSREAFTMDEKRSRAVRYAFSRYYHEGLAYRAPRLVNWCPRCETTLSDLEVETEPTPGKLYTLRYEVEGGGFIEIATVRPETVFADQAIAVHPEDERYRHLLGKRARIPLTEVWIPILADPAVEKDFGTGALKVTPAHDPLDYEIGERHGLKPVSVINLEGRMEGERVPEALRGLDRFEARRKAVELFREAGHLVKEEDYTIALATCSRCGTPIEYAIFPQWWLRMRPLAEEVLKGLRRGDIAFVPERWKKVNMDWLENVKDWNISRQLWWGHQIPAWYCEDCQAVNVPRPERYLEDPTSCEACGSPRLKRDEDVFDTWFSSALWPLSTLGWPEETEDLKAFYPGDVLVTGYDILFLWVSRMEVSGYHFMGERPFKTVLLHGLVLDEKGQKMSKSKGNVIDPLEMVERYGADALRFALIYLATGGQDIRLDLRWLEMARNFANKLYNAARFVLLSREGFQAKEDTPTLADRFMRSRLSRGVEEITALYEALDLAQAAREVYELVWSEFCDWYLEAAKPALKAGNAHTLRTLEEVLAVLLKLLHPMMPFLTSELYQALTGKEELALEAWPEPGGRDEEAERAFEALKQAVTAVRALKAEAGLPPAQEVRVYLEGETAPVEENLEVFRFLSRADLLPERPAKALVKAMPRVTARMPLEGLLDVEEWRRRQEKRLKELLALAERSQRKLASPGFREKAPKEVVEAEEARLKENLEQAERIREALSQIG | soluble |
| MSATGKVSRPIQVFTRANYFFKLIFQFKVRKYNSLTVERIFIRAMCGSDDSFDDFVPDSQEPASSRTRNQDHLDDDEVPCSQRPDAANDTMVEDLDEGDEPAHDESEDIIKILVATDIHCGYGENKANIHMDAVNTFEEVLQIATEQKVDMILLGGDLFHENNPSREVQHRVTQLLRQYCLNGNPIALEFLSDASVNFNQSVFGHVNYYDQNLNVGLPIFTIHGNHDDLSGKGLTALDLLHESGLVNLFGKHSNIQEFIVSPILLRKGETRLALYGIGSQRDDRLVRAFKNNSISFLRPNAGAEDWFNLFVLHQNRPRRAMHRSTGNFLPESLIPQFFDLLIWGHEHECKPDPQYVASSEAVGDGFYILQPGSTVATSLTPEEALQKNAFLIKIKGRKFASKPIPLQTVRPMVCDELLLDKIPPGSRPILKTDRPKHTDGRYIDEIAIEAKINEMITTAKAKRRPRQPELPLIRLKVIYDGDWLNITPANAKRIGLRYENVVANAVDMVFIKKNNKPKEGKLQTENEKNITEMADEMGQVSATNLQTIINDYFINQPLVDQMTVLKPIGIGRALEQYSAIEEGGLATSANRNFDSCLMHQIDVVRKTLKKMPLPPINDPSDLDKFRDLITKDLYDMKKADSERFKNPVADVEMEEDEDDPQYYMPPQSTSRTNYASGSEDEVANSDEEMGSSISRHSKQPTTRGRGRGARGAGASRETTRGRSNKVVSTRQIDSDGFEIINDSPSPPPASRSTRGKARGKSAPSKKRDLSFF | not soluble |
| FLQNAVILGATENGLRLAEYLLEHQDIRSGVIGFIDDRIGRMPKTVANLPLLGNTSDLERLIREEKVTQVLVALPWTAENRMDYIIRELRRLPVNVLLVPDMIAFRHT | not soluble |
